Assay results: patent publication US20230391852A1 (US Dept. of Health and Human Services, published 2023)

B1: 1B5 VHH-hFc (Fc fusion)
chain: DVQLVESGGGSVQAGGSLRLSCTGSRYTYSTYCMGWFRQAPGKEEEAVAIINSGGGEPYYGDSVKGRFTISQDRAKNTVYLQMDGLQPDDTAIYYCVAADSHNSRCYLGRSYVNYWGQGTQVTVSS
notes: also called 1B5-hFc; NCI-CoV-1B5 VHH-hFc fusion protein
B2: 2F7 VHH-hFc (Fc fusion)
chain: QVKLEESGGGSVQSGGSLRLSCTVSRDTNTNINRCMGWFRQAPGKGLETVATINRDGTNTYYTDAVKGRFTISQDNVKNTVYLQMNNLTPEDTGTYICNAMGRGSGSRCDNWDPNYWGQGTQVTVSS
notes: also called 2F7-hFc; NCI-CoV-2F7 VHH-hFc fusion protein
B3: 7A3 VHH-hFc (Fc fusion)
chain: QVQLVESGGGSVQPGGSLRLSCVVSGYTSSSRYMGWFRQVPGKGLEWVSGIKRDGTNTYYADSVKGRFTISQDNAKNTVYLQMNSLKPEDTAMYYCAAGSWYNQWGYSMDYWGKGTQVTVSS
notes: also called 7A3-hFc; NCI-CoV-7A3 VHH-hFc fusion protein
B4: 8A4 VHH-hFc (Fc fusion)
chain: EVQLVESGGGLVQPGESLRLSCEASGFTFSSVYMSWVRQAPGKGLEWISTIHPAGGSTYYADSMKDRFTISRDNAKNTLYLQMNSLKSEDTALYYCIIEALSGYRGPGTQVTVSS
notes: also called 8A4-hFc; NCI-CoV-8A4 VHH-hFc fusion protein
B5: 8A2 VHH-hFc (Fc fusion)
chain: AVQLVDSGGGSVQAGGSLRLSCAASGYTYSICTMGWYRQAPGEGLEWVSGINADGSNTHYTDSVKGRFTISRDNAKKTLYLQMNSLKPEDTAIYYCAAHGTYDKYAPCGGFAGTYTYWGQGTQVTVSS
notes: also called NCI-CoV-8A2 VHH-hFc
B6: 1H6 VHH-hFc (Fc fusion)
chain: AVQLVDSGGGSVQAGGSLNLSCVASGTTLRNGCMAWFRQVPGKEREVVAIIIRATSYTDYADSVKGRFTISQDNAKNTVYLQMKSLTPEDTATYYCAATLYRVNCAKREFDKWGQGTQVTVSS
notes: also called 1H6-hFc; NCI-CoV-1H6 VHH-hFc fusion protein

What follows are binders tested against SARS-CoV-2 S protein trimer expressed on human A431 cells (SARS-CoV-2, UniProt P0DTC2 14-1273) (assay: flow cytometry on A431 cells expressing SARS-CoV-2 S (A431-CoV-2-S)).

Compared with B1, B2 is higher in “percent of cells right of the dashed gate line” value (“percent” below): 99.1% for the first, 99.3% for the second.

Compared with B3, B4 is lower in “percent” value: 99.5% for the first, 99.4% for the second.

Compared with B5, B6 is higher in “percent” value: 98.7% for the first, 99.5% for the second.
